Reference: patent US20180052165A1

Target: human claudin-1 (human) (UniProt O95832)
Assay: confocal fluorescence on SW620 cells with control siRNA versus CLDN1 siRNA; non-significant

Sequence of human claudin-1 (human) (O95832 whole entry): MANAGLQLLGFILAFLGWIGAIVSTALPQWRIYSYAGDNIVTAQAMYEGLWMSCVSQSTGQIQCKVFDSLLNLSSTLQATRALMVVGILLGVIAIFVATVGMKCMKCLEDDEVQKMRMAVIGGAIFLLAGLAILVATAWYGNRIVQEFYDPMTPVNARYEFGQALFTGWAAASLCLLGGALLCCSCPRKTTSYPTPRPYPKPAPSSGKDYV

fold-change of signal, siCL versus siCLDN1 cells: 0.8 fold
Substance: SPT*-Cy5.5 (control scrambled peptide SPTPSSR labeled with Cy5.5 via the GGGSK linker)
